Values of other authors, collected in PMC12524998.

Target: dysferlin (Homo sapiens) (UniProt O75923)
Assay: SPR

UniProt O75923, sequence (O75923 whole entry): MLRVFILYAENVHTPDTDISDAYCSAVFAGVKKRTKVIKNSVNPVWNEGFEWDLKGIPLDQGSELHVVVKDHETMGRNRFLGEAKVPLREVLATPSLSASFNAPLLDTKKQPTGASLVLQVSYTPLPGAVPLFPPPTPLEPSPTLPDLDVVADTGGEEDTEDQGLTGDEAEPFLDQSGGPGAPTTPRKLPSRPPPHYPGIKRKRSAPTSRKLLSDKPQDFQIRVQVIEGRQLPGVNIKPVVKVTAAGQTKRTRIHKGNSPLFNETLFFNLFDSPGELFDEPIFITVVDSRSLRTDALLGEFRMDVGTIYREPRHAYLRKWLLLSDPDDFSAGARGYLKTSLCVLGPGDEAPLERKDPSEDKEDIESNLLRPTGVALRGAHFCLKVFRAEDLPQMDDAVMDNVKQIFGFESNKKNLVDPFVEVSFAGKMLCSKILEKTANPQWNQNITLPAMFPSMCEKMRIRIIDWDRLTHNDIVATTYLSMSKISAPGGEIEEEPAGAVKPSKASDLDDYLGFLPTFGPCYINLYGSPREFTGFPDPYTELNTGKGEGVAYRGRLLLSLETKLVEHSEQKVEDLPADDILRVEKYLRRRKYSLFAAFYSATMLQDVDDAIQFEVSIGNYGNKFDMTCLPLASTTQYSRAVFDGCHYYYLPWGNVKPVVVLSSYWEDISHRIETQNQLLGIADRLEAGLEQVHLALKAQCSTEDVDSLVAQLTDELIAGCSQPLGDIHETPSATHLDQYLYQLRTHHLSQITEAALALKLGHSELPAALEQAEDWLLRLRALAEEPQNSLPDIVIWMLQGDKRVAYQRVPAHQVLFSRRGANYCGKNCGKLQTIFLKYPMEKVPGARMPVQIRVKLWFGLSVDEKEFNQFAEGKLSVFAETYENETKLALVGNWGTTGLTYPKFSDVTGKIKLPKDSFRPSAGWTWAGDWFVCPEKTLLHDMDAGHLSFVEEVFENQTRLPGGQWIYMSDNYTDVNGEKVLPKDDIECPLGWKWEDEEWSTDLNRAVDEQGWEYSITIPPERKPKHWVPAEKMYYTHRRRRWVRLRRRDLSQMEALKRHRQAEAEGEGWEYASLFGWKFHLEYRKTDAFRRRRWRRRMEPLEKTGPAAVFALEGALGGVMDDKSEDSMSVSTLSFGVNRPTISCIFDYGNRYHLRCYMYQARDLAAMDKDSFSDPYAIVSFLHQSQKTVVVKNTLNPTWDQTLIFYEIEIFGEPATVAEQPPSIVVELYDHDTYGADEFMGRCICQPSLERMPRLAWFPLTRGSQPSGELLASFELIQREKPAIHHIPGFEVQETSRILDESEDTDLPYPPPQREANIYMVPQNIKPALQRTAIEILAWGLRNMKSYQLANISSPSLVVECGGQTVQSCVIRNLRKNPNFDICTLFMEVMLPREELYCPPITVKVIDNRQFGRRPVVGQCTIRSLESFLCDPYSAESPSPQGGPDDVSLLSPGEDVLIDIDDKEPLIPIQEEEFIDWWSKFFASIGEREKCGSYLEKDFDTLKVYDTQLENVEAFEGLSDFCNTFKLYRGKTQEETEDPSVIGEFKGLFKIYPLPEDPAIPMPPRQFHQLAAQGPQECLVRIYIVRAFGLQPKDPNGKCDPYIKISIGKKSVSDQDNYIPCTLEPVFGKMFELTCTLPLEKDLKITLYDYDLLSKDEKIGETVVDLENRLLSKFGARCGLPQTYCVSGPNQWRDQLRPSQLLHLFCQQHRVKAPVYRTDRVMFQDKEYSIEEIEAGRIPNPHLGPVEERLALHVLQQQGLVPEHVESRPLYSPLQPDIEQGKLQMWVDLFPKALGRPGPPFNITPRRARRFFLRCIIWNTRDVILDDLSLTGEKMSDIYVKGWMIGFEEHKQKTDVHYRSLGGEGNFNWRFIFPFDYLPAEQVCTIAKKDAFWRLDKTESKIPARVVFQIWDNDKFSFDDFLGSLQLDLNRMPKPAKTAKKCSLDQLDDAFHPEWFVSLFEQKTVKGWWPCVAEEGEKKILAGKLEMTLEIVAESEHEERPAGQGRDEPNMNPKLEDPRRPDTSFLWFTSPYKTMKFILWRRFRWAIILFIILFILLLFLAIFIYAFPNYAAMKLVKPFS

Kd: 24 nM
Substance: FKBP8 (from UniProt Q14318)
